Tests used:
[1] = molecular target: T1, folate receptor alpha (FR-α) (UniProt P15328 25-234, limits assumed); assay: flow cytometry on KB cells, fluorescence-labeled anti-mouse Ig
T1 construct: whole, on cells

[2] = molecular target: T2, folate receptor beta (FR-β) (human, UniProt P14207 17-230); assay: flow cytometry on FR-β gene-transfected B300-19 cells
T2 construct: whole, on cells; also called FR-β antigen; human FR-β antigen
T2 sequence (P14207 17-230): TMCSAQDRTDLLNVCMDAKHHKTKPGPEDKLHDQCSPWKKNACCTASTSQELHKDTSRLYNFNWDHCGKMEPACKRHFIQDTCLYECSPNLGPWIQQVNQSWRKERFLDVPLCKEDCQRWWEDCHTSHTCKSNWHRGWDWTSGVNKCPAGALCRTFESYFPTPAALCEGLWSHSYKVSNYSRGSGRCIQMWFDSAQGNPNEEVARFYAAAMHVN
Description: Using a mixture of 20 μl of lipofectamine (Gibco BRL), 1 μg of the purified pEF vector insert, and 1 ml of a Hank's balanced salt solution, the FR-β gene was transfected into B300-19 cells which were previously prepared at 1×10⁵ in 24 wells. […] Namely, 5×10⁵ B3001-9 cells were reacted with 0.1 ml of the FR-β antibody (1 mg/ml) at 4° C. for 30 minutes. The cells were washed 3 times with PBS containing 0.1% NaN₃ and 10% fetal calf serum, after which they were reacted with a fluorescence-labeled goat anti-mouse Ig antibody (BIOSOURCE) at 4° C. for 30 minutes. Then, the cells were washed twice with PBS containing 0.1% NaN₃ and 1% fetal calf serum, after which fluorescence of the cells was assayed using EPICS Elite (Coulter).

T1 sequence (P15328 25-234 limits assumed): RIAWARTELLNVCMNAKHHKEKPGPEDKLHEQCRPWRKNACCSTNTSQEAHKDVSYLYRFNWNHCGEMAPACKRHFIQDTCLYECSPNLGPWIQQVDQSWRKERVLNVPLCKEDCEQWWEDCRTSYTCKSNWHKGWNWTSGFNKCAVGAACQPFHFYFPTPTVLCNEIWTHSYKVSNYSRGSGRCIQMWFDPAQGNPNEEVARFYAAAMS

Binder	binding result [1]	binding result [2]
IgG-type FR-β monoclonal antibody clone 94b (antibody, V domains shown) VH: EVQLQQSGAELVKPGASVRLSCTASGFNIKDTYMYWVKQRPEQGLEWIGRLDPANGNTRYDPKFQGKATITSDTSSNTAYLQLSSLTSEDTAVYYCAGDYPIIDYWGQGTTLTVSS VL: DIVMSQSPSSLAVSAGEKVTMSCKSSQSLLNSRTRKTYLAWYQQKPGQSPKLLIYWASTRESGVPDRFTGSGSGTEFTLTISSVQAEDLAVYYCKQSYNLWTFGGGTKLEIKR	no binding	binds
IgG-type FR-β monoclonal antibody clone 36 (antibody, V domains shown, also called clone 36 antibody; IgG monoclonal antibody against a human FR-β antigen (clone 36)) VH: QVQLQQSGAELMKPGASLKISCKATGYTFSSYWIEWVKQRPGHGLQWIGEILPGSGSSNYNEKFKGKATFTADTSSNTAYMQLSSLTSEDSAVYYCARRGSSGSYFAMDYWGQGTSVTVSS VL: DIQMTQSSSSFSVSLGDRVTITCKASEDIYNRLAWYQQKPGNAPRLLISGATSLETGVPLRFSGSGSGKDYTLSITSLQTEDIATYYCQQYWSTPWTFGGGTKLEIK	no binding	

Reference: patent US20080260812A1 (TAKAMI MATSUYAMA C O KAGOSHIMA UNIVERSITY, published 2008)
